The target in this test is calcium/calmodulin dependent protein kinase IIα (UniProt Q9UQM7).
Chain of UniProt Q9UQM7 (Q9UQM7 whole entry): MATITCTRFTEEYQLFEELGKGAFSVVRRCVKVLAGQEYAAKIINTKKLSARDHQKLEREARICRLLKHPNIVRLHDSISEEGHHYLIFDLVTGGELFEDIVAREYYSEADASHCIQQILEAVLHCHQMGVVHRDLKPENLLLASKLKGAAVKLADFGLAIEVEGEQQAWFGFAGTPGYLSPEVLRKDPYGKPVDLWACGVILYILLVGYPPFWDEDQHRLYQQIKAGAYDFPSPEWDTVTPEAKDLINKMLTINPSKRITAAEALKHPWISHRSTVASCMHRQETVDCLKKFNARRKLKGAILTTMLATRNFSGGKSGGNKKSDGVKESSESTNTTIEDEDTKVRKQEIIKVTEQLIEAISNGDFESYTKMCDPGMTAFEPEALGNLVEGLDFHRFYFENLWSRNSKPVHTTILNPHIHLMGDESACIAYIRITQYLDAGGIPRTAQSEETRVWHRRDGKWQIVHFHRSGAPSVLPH

“MetO77 calmodulin (from UniProt P0DP23 1-149) (natural protein)”: the half maximal activation of CaMKIIα (phosphorylation of syntide-2, HPLC), calmodulin 10^-9 to 10^-6 M, 0.5 mM calcium chloride, 37° amounted to 129 nM. The result for “wild type calmodulin (recombinant, human) (from UniProt P0DP23 1-149) (natural protein)” reads 64 nM.

Values taken from publication PMC6210676.
